Measurements taken from patent US20040197338A1 (published 2004).

Target: T1, P^His (recombinant RSV A2 phosphoprotein (P) with a Histidine tag at its amino terminus, expressed from pETP … (respiratory syncytial virus, A2 strain, UniProt P03421 1-241))
T1 construct: also called P^His protein; recombinant P protein; not shown: N-terminal Histidine tag from vector pET16b
Assay: not described at this place (legend of FIG. 10)

Q: Does KLCGMLLITE [peptide N4.10] bind?
A: binds
